These results are taken from patent US20210253718A1, “FRIZZLED5 PROTEIN-BINDING AGENTS” (Modmab Therapeutics Corporation, priority 2016, published 2021).

Numbering of substitutions follows the chain as printed.

Test [1] deals with CHO cells not expressing Frizzled CRD. Briefly: Flow cytometry of anti-FZD5 Fab binding to CHO cells not expressing Frizzled CRD (background). An excerpt:
(§1) The binding of anti-FZD5 Fabs to cell surface-expressed Frizzled protein was further determined for each member of the Frizzled family via flow cytometry and immunofluorescence analysis of a panel of 10 CHO cell lines, each ectopically over-expressing the extracellular cysteine-rich domain (CRD) of a different Frizzled protein family member.
A general note: Flow cytometry measures light scatter and fluorescence of single cells or particles in a stream.

The target in the next test is T1, FZD8 CRD (Homo sapiens, UniProt Q9H461).
T1 construct: K31-D155; GPI anchor signal (C); expressed in transfected cells; host or cells: CHO cells, lentiviral pLenti-puro
T1 sequence (Q9H461 31-155): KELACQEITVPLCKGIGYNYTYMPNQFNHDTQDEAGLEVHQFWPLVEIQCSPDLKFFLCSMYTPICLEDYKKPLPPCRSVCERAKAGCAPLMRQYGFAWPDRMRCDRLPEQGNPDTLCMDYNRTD
Briefly: Immunofluorescence of anti-FZD5 Fab binding to CHO cells overexpressing Frizzled CRD. Also on record: key: −: no binding; +: very weak binder; ++: weak binder; +++: good binder; ++++: very good binder. How it is done:
(§2) Plasmids: pLCKO lentiviral vector used for knockout (TKO) library construction and expression of individual gRNAs was constructed as described previously (Hart et al., 2015). Briefly, single guide RNA (sgRNA) scaffold was amplified from px330 (Addgene 42230) and cloned into pLKO.TRC005 lentiviral vector (Broad Institute, Cambridge, Mass.) using AgeI/EcoRI restriction sites. BfuAI sites were added at the 5′ end of the sgRNA scaffold for cloning the TKO library or individual gRNA target sequences. Lenti Cas9-2A-BsdR vector used to generate Cas9 stable expression cell lines was constructed as described previously (Hart et al., 2015). Briefly, lentiCRISPR pXPR_001 (Addgene 49535) was modified through removal of the sgRNA scaffold region through NdeI/EcoRI digest and blunt ends generation using Large Klenow Fragment (NEB). 2A-puro was replaced with 2A-BsdR by PCR using the NheI/MluI sites. Each of the 10 human Frizzled cysteine rich domains (CRDs) were cloned into the lentiviral expression plasmid pLenti-puro in the following cassette: FZD_CRD-MYC-GPI.
(§3) To confirm that the FZD5-WNT7B circuit is not driven simply by expression and rule out the possibility of a disconnect between RNA and protein levels for the Wnt receptors in HPAF-II cells, a panel of recombinant Fabs were generated, alternatively referred to herein as ‘Frizzled profiler’, that can detect and discriminate all but one of the ten Frizzled receptors. […] To characterize the binding specificity of these Fabs on cells, a panel of 10 CHO cell lines was generated, each expressing the CRD domain of a different myc-tagged Frizzled family member anchored at the plasma membrane through a GPI anchor (CHO-myc-FZDGPI). Despite the high sequence identity between Frizzled family members (FIG. 7A, FIG. 7B), selective Fabs were identified for FZD4, FZD5, FZD6 and FZD10 as assessed by immunofluorescence and flow cytometry (FIG. 7D and FIG. 8). […] The FZD8 CRD is most homologous to that of FZD5 (FIG. 7B). These Fabs can be used to discriminate expression of FZD1, FZD2, FZD4, FZD5, FZD6, FZD7, FZD8, FZD9 and FZD10 (FIG. 7D and FIG. 8). The ‘Frizzled profiler’ therefore consists of 10 different Fabs that can be used to discriminate expression of 9 different Frizzled family members. The Frizzled profiler was then used to confirm that HPAF-II cells express FZD1, FZD5, FZD6 and possibly FZD8 (FIG. 7E).
as §1

Another test deals with T2, FZD3 CRD (Homo sapiens, UniProt Q9NPG1).
T2 construct: CRD of FZD1, FZD2, FZD3, FZD4, FZD5, FZD6, FZD7, FZD8, FZD9 or FZD10; GPI anchor signal (C); expressed in transfected cells; host or cells: CHO cells, lentiviral pLenti-puro
T2 sequence (Q9NPG1 23-136 limits assumed): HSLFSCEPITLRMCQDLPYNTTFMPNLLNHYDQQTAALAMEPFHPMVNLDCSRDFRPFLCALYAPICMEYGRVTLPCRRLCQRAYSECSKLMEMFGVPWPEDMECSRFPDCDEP
The test is described as above. Also on record: key: −: no binding; +: very weak binder; ++: weak binder; +++: good binder; ++++: very good binder. How it is done:
as §2, §3, §1

The target in the next test is T3, FZD5 CRD (Homo sapiens, UniProt Q13467).
T3 construct: K29-T156; GPI anchor signal (C); expressed in transfected cells; host or cells: CHO cells, lentiviral pLenti-puro
T3 sequence (Q13467 29-156): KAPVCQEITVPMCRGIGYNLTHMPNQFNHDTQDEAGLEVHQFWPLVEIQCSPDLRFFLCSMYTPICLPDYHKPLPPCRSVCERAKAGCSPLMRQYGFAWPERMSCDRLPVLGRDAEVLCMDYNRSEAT
Described as above. Further details: key: −: no binding; +: very weak binder; ++: weak binder; +++: good binder; ++++: very good binder. How it is done: as §2, §3, §1

The target of the next test is T4, FZD4 CRD (Homo sapiens, UniProt Q9ULV1).
T4 construct: E42-V167; GPI anchor signal (C); expressed in transfected cells; host or cells: CHO cells, lentiviral pLenti-puro
T4 sequence (Q9ULV1 42-167): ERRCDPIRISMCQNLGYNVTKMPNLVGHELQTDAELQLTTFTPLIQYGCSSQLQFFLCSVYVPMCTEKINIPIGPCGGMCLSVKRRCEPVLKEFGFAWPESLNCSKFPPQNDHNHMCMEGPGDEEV
The test is described as above. Further details: key: −: no binding; +: very weak binder; ++: weak binder; +++: good binder; ++++: very good binder. The method, then:
as §2, §3, §1

The target of another test is T5, FZD1 CRD (Homo sapiens, UniProt Q9UP38).
T5 construct: D112-P238; GPI anchor signal (C); expressed in transfected cells; host or cells: CHO cells, lentiviral pLenti-puro
The description is as above. Also on record: key: −: no binding; +: very weak binder; ++: weak binder; +++: good binder; ++++: very good binder. The method, then:
as §2, §3, §1

For the next test, the target named is T6, FZD9 CRD (Homo sapiens, UniProt O00144).
T6 construct: G35-A161; GPI anchor signal (C); expressed in transfected cells; host or cells: CHO cells, lentiviral pLenti-puro
T6 sequence (O00144 35-161): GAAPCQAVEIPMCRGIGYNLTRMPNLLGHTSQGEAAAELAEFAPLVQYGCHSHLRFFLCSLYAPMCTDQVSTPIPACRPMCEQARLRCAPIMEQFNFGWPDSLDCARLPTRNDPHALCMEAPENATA
The test is described as above. Further details: key: −: no binding; +: very weak binder; ++: weak binder; +++: good binder; ++++: very good binder. How it is done: as §2, §3, §1

For a further test, the target named is T7, FZD2 CRD (Homo sapiens, UniProt Q14332).
T7 construct: D35-P161; GPI anchor signal (C); expressed in transfected cells; host or cells: CHO cells, lentiviral pLenti-puro
The test is described as above. Also on record: key: −: no binding; +: very weak binder; ++: weak binder; +++: good binder; ++++: very good binder. The method, then: as §2, §3, §1

B1: Fab-2898: anti-FZD5 Fab with antibody variable region Fv-2898; CDR SEQ ID NOs: 35, 36, 37, 76, 113, 152 (antibody, V domains shown)
VH: EVQLVESGGGLVQPGGSLRLSCAASGFNIYSYSMHWVRQAPGKGLEWVASIYSSSGSTSYADSVKGRFTISADTSKNTAYLQMNSLRAEDTAVYYCARAVWGLDYWGQGTLVTVSS
VL: DIQMTQSPSSLSASVGDRVTITCRASQSVSSAVAWYQQKPGKAPKLLIYSASSLYSGVPSRFSGSRSGTDFTLTISSLQPEDFATYYCQQWWGYYSLITFGQGTKVEIK
Consider B1, for which the “Median fluorescence, Frizzled CRD overexpressed on CHO cells: None” value (shortened to “Median fluorescence”) in test [1] came out at 5.38. Moreover, in the test with FZD8 CRD, the “Immunofluorescence binding, Frizzled CRD overexpressed on CHO cells: FZD8” value (shortened to “Immunofluorescence binding … FZD8”) is “+”. In addition, in the test with FZD3 CRD, the “Immunofluorescence binding, Frizzled CRD overexpressed on CHO cells: FZD3” value (“Immunofluorescence binding … FZD3” for short) was “−”. In the test with FZD5 CRD, the “Immunofluorescence binding, Frizzled CRD overexpressed on CHO cells: FZD5” value (“Immunofluorescence binding … FZD5” below) is “+++”. The “Immunofluorescence binding, Frizzled CRD overexpressed on CHO cells: FZD4” value (shortened to “Immunofluorescence binding … FZD4”) with FZD4 CRD is “−”. For the same molecule, the “Immunofluorescence binding, Frizzled CRD overexpressed on CHO cells: FZD1” value (“Immunofluorescence binding … FZD1” for short) with FZD1 CRD is “++++”. The “Immunofluorescence binding, Frizzled CRD overexpressed on CHO cells: FZD9” value (“Immunofluorescence binding … FZD9” below) with FZD9 CRD is “−”. In addition, the “Immunofluorescence binding, Frizzled CRD overexpressed on CHO cells: FZD2” value (shortened to “Immunofluorescence binding … FZD2”) with FZD2 CRD is reported as “+++”.

B2: Fab-2903: anti-FZD5 Fab with antibody variable region Fv-2903; CDR SEQ ID NOs: 35, 36, 42, 81, 118, 155 (antibody, V domains shown)
VH: EVQLVESGGGLVQPGGSLRLSCAASGFNLSYYYIHWVRQAPGKGLEWVASIYPYSSYTSYADSVKGRFTISADTSKNTAYLQMNSLRAEDTAVYYCARGAIDYWGQGTLVTVSS
VL: B1 VL with W92G, Y94G, Y95S, I98F
As to B2, the “Median fluorescence” value in test [1] came out at 4.07. Besides, the “Immunofluorescence binding … FZD8” value with FZD8 CRD is “+”. Moreover, the “Immunofluorescence binding … FZD3” value with FZD3 CRD is given as “−”. Also, the “Immunofluorescence binding … FZD5” value with FZD5 CRD is given as “++++”. The “Immunofluorescence binding … FZD4” value with FZD4 CRD is “−”. For the same molecule, in the test with FZD1 CRD, the “Immunofluorescence binding … FZD1” value was “+”. For the same molecule, the “Immunofluorescence binding … FZD9” value with FZD9 CRD was “−”. In addition, in the test with FZD2 CRD, the “Immunofluorescence binding … FZD2” value is listed as “−”.

B3: Fab-2900: anti-FZD5 Fab with antibody variable region Fv-2900; CDR SEQ ID NOs: 35, 36, 39, 78, 115, 153 (antibody, V domains shown)
VH: B2 VH with Y31S, Y52S, P53S, Y54S, Y57S, I101L
VL: B1 VL with W92Y, G93S, Y94G, Y95S, I98F
For B3, in test [1], the “Median fluorescence” value turned out to be 3.4. Further, the “Immunofluorescence binding … FZD8” value with FZD8 CRD is recorded as “+”. The “Immunofluorescence binding … FZD3” value with FZD3 CRD is recorded as “−”. In addition, the “Immunofluorescence binding … FZD5” value in the test with FZD5 CRD was “++++”. In the test with FZD4 CRD, the “Immunofluorescence binding … FZD4” value is on record as “−”. Moreover, the “Immunofluorescence binding … FZD1” value in the test with FZD1 CRD is reported as “−”. For the same molecule, the “Immunofluorescence binding … FZD9” value with FZD9 CRD is “−”. Besides, the “Immunofluorescence binding … FZD2” value with FZD2 CRD is given as “−”.

B4: Fab-2902: anti-FZD5 Fab with antibody variable region Fv-2902; CDR SEQ ID NOs: 35, 36, 41, 80, 117, 153 (antibody, V domains shown)
VH: B2 VH with L29I, Y52S, P53S, Y54S, Y57S, I101L
VL: B1 VL with W92Y, G93A, Y94F, Y95G, S96A
Regarding B4, the “Median fluorescence” value in test [1] was 4.66. Moreover, the “Immunofluorescence binding … FZD8” value with FZD8 CRD is recorded as “++”. Also, in the test with FZD3 CRD, the “Immunofluorescence binding … FZD3” value is “−”. In the test with FZD5 CRD, the “Immunofluorescence binding … FZD5” value was “++++”. For the same molecule, the “Immunofluorescence binding … FZD4” value with FZD4 CRD is listed as “−”. Further, the “Immunofluorescence binding … FZD1” value with FZD1 CRD was “−”. Moreover, in the test with FZD9 CRD, the “Immunofluorescence binding … FZD9” value was “−”. Besides, in the test with FZD2 CRD, the “Immunofluorescence binding … FZD2” value is “−”.

B5: Fab-2899: anti-FZD5 Fab with antibody variable region Fv-2899; CDR SEQ ID NOs: 35, 36, 38, 77, 114, 153 (antibody, V domains shown)
VH: B2 VH with S30Y, I34M, Y54S, S56G, Y57S, I101L
VL: B1 VL with W92Y, G93S, Y94S, S96G
Regarding B5, the “Median fluorescence” value in test [1] worked out at 4.91. Moreover, the “Immunofluorescence binding … FZD8” value with FZD8 CRD is recorded as “+”. The “Immunofluorescence binding … FZD3” value with FZD3 CRD is listed as “−”. Moreover, the “Immunofluorescence binding … FZD5” value with FZD5 CRD was “+++”. Besides, the “Immunofluorescence binding … FZD4” value with FZD4 CRD is listed as “−”. Moreover, the “Immunofluorescence binding … FZD1” value with FZD1 CRD is on record as “+++”. The “Immunofluorescence binding … FZD9” value with FZD9 CRD is “−”. Also, the “Immunofluorescence binding … FZD2” value with FZD2 CRD is listed as “+++”.
